The text below walks through data of patent US20260217843A1 (APOGEE THERAPEUTICS, published 2026).

As a reminder, the Kd is the concentration at which binding is half-saturated. As usually defined, the koff is the rate constant with which the complex falls apart. The kon is a measure of how fast the partners come together. What is called IC50 is the concentration that inhibits the measured activity by half. As a reminder, the EC50 is the midpoint of the concentration-response curve. High values mean a need for much substance, low ones an effect from little substance.

One assay has as its target T1, human CD16a 176F (human, UniProt P08637 17-208).
T1 construct: numbering not explained
Put plainly: SPR (Biacore 8K+), antibody captured by anti-human IgG Fc, receptor injected. As to the method: (§1) Briefly, a CM5 Series S sensor chip functionalized with anti-human IgG Fc antibody was used to capture antibodies at 5 μg/mL. […] The chip was regenerated with 10 mM glycine pH 1.5 and 10 mM NaOH between runs.
In general terms: SPR reads the build-up and loss of mass on a sensor chip optically.

The target of a further assay is T2, human CD16a 176V (human, UniProt P08637 17-208).
T2 construct: Allelic variant named only as '176V'; numbering not explained
The description is as above. As to the method:
as §1

A further assay addresses T3, human CD32a 167R (human, UniProt P12318 36-218).
T3 construct: numbering not explained
T3 sequence (looked up): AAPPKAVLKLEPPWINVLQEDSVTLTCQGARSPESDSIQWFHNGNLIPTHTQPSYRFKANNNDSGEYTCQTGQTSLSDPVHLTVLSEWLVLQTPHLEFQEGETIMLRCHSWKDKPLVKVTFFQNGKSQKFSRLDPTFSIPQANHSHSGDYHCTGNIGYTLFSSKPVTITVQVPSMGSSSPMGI
Described as above. Here is the method: as §1

A further assay addresses human CD16b (human, UniProt O75015 17-200, limits assumed). The assay is described as above. As to the method:
as §1

The target in a further assay is T4, human CD32b (human, UniProt P31994 46-217).
T4 sequence (looked up): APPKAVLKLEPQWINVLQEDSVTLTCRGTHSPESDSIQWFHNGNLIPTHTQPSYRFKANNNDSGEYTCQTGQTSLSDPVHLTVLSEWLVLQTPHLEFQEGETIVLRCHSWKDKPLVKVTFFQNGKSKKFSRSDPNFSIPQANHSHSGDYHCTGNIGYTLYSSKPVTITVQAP
The assay is described as above. Here is the method:
as §1

Another assay concerns the target human CD64 (human, UniProt P12314 16-288). The assay is described as above. Here is the method:
as §1

A further assay addresses T5, human CD32a 167H (human, UniProt P12318 36-218).
T5 construct: numbering not explained
T5 sequence (looked up): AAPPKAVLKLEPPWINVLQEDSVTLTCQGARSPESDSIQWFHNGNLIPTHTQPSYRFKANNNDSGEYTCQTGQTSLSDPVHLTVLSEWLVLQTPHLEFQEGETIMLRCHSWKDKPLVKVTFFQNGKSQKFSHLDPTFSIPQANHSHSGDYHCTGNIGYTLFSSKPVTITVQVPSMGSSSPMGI
Described as above. Here is the method:
as §1

The next assay addresses cynomolgus FcRn (cynomolgus, UniProt Q8SPV9 24-297; Q8SPW0 21-119). Put plainly: SPR (Biacore 8K+), antibody captured by anti-human kappa, cynomolgus FcRn injected, pH 5.8; pH 5.8. As to the method: (§2) Briefly, a CM5 Series S sensor chip functionalized with anti-human kappa antibody was used to capture antibodies at 5 μg/mL. […] The chip was regenerated with 10 mM glycine pH 1.5 and 10 mM NaOH between runs.

Assay [1] concerns the target T6, Recombinant Human OX40L Protein, His Tag (Acro Cat. IL3-H52H4) (human, UniProt P23510 51-183).
T6 construct: Bought His-tagged protein; also called hOX40L
T6 sequence: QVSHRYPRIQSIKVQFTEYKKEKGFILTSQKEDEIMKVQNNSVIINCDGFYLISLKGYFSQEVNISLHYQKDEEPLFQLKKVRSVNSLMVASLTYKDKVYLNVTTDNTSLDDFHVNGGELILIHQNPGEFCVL
Put plainly: SPR (Biacore 8K), antibody captured, human OX40L injected, 1:1 fit. Here is the method:
(§3) Samples were injected in a multi-cycle manner over freshly captured mAb, by regenerating the capture surfaces with injection of glycine pH 1.5 for 30 sec at a flow rate of 30 μL/min. The data was processed and analyzed with Biacore Insight Evaluation Software Version 2.0.15.12933 (GE Healthcare) as follows. […] The responses from the two buffer blank injections were then subtracted from the reference subtracted data (2-1) to yield double-referenced data, which were fit to an 1:1 binding model to determine the apparent association (ka) and dissociation rate constants (kd). Their ratio provided the apparent equilibrium dissociation constant or affinity constant (KD=kd/ka).

In assay [2] the target is T7, Recombinant Cynomolgus OX40L Protein, His Tag (SINO BIOLOGICAL, Cat. 11057-C07H) (cynomolgus, UniProt G7NVH7 51-183).
T7 construct: Bought protein
T7 sequence: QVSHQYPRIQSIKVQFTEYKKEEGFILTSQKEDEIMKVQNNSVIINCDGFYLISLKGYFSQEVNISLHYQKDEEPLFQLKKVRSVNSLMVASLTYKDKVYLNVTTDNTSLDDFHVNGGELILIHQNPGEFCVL
The experiment in a line: SPR (Biacore 8K), antibody captured, cynomolgus OX40L injected, 1:1 fit. As to the method: as §3

Assay [3] deals with T8, hOX40L added as soluble protein in cell assays (human, UniProt P23510 51-183, limits assumed).
T8 sequence: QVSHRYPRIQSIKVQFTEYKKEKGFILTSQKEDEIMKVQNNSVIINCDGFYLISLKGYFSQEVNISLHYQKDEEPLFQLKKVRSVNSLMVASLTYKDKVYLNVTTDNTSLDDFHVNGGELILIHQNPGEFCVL
The experiment in a line: cell-based or functional assay.

The target in the next assay is T9, biotinylated hOX40L (human, UniProt P23510 51-183, limits assumed, biotinylated (sites not given)).
T9 construct: construct not described
T9 sequence: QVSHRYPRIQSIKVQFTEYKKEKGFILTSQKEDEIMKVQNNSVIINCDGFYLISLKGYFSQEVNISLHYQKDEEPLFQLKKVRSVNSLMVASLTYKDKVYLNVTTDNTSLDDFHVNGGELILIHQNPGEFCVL
The experiment in a line: blocking ELISA: biotinylated hOX40L preincubated with titrated antibody, added to coated hOX40-Fc, Extravidin-HRP. (An ELISA detects its analyte on a solid surface through an enzyme-linked reagent.)

In assay [4] the target is T10, hOX40L on hOX40L-expressing CHO cells (human, UniProt P23510 1-183).
T10 construct: also called cell surface OX40L
T10 sequence: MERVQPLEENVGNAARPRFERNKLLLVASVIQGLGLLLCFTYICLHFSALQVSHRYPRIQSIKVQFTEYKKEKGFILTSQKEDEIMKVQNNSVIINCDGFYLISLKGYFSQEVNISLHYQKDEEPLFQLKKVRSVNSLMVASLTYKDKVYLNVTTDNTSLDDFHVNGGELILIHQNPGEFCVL
Put plainly: flow cytometry on hOX40L-expressing CHO cells, gMFI, nonlinear regression. As to the method: Nonlinear regression was performed on geometric mean fluorescence intensity (gMFI) values to determine EC50 values (FIG. 1, TABLE 8).

Assay [5] deals with T8, hOX40L added as soluble protein in cell …. Put plainly: cell-based or functional assay. This is another data set of the same source.
Another assay has as its target T11, C1q.
T11 construct: also called Clq
Put plainly: SPR (Biacore 8K+), antibody captured by anti-human IgG Fc, C1q injected at 25 nM, mean response. Here is the method: as §1

The target of the next assay is human FcRn (human, UniProt P55899 24-297; P61769 21-119). The experiment in a line: SPR (Biacore 8K+), antibody captured by anti-human kappa, human FcRn injected, pH 5.8; pH 5.8. As to the method: as §2
Sequence of human FcRn (P55899 24-297 limits assumed, form in doubt, chain 1 of 2): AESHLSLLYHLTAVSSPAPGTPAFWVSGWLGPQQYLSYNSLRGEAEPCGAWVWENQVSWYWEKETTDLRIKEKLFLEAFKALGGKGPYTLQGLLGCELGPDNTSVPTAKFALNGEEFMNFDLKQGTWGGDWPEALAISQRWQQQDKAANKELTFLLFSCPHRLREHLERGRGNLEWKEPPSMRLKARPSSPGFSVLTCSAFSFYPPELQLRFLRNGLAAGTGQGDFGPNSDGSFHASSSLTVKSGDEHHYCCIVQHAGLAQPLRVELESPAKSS
Sequence of human FcRn (P61769 21-119 limits assumed, form in doubt, chain 2 of 2): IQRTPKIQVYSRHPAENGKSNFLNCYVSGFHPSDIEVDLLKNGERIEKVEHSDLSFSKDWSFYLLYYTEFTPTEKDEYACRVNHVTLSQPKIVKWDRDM

Sequence of cynomolgus FcRn (Q8SPV9 24-297 limits assumed, chain 1 of 2): as the sequence (P55899 24-297 limits assumed, form in doubt, chain 1 of 2) above, with N39D, E44Q, G99S, S189G, S190N, L217M, S269T counted along it
Sequence of cynomolgus FcRn (Q8SPW0 21-119 limits assumed, chain 2 of 2): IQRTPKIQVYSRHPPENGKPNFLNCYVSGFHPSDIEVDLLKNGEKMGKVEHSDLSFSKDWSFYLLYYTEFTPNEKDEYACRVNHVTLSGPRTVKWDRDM
T2 sequence (P08637 17-208 F176V limits assumed): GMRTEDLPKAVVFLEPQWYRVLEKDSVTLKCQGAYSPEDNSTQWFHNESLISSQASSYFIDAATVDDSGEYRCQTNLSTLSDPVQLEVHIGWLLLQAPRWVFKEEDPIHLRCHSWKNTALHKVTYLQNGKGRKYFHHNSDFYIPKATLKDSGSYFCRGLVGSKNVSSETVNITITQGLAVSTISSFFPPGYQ
Sequence of human CD64 (P12314 16-288 limits assumed): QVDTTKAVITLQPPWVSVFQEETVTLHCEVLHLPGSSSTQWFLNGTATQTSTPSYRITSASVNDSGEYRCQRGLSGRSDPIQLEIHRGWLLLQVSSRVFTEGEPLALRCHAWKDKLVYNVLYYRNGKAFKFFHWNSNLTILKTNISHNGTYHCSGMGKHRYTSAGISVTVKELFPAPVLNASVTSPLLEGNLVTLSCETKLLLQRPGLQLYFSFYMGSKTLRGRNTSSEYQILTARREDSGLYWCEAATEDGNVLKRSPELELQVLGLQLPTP
Sequence of human CD16b (O75015 17-200 limits assumed): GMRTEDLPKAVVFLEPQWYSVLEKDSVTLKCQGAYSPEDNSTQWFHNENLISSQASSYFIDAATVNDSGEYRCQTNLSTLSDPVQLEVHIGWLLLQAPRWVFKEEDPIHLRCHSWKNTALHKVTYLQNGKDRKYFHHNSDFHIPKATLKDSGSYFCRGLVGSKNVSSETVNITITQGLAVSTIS
T11 sequence (P02745 23-245, chain 1 of 3): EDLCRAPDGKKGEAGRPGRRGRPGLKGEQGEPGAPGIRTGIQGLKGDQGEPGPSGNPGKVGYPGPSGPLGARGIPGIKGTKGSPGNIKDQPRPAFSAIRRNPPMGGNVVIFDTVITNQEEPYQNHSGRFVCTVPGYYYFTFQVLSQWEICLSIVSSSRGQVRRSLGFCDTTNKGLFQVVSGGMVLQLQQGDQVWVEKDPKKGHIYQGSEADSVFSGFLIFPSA
T11 sequence (P02746 28-253, chain 2 of 3, further chain): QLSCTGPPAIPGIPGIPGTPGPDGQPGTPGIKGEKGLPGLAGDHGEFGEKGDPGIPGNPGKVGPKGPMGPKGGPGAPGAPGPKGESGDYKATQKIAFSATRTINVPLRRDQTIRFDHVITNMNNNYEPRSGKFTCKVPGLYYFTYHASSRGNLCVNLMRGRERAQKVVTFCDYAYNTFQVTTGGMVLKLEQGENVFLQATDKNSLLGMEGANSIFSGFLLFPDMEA
T11 sequence (P02747 29-245, chain 3 of 3, further chain): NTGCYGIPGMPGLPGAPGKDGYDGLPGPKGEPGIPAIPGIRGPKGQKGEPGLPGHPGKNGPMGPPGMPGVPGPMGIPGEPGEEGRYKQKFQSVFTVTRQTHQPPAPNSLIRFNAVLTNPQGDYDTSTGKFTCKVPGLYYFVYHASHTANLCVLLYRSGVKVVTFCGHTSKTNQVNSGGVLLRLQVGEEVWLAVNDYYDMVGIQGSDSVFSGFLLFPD
T1 sequence (P08637 17-208 limits assumed): as the sequence (P08637 17-208 F176V limits assumed) above, with V160F counted along it

B1: anti-hOX40L antibody clone 105 (antibody, human IgG1, kappa, L234A L235A)
heavy: EVRLVESGGGLVQPGGSLRLSCAASGFTFSSYAMTWVRQAPGKGLEWVSLISGSGGLTKYADSVKGRFTISRDNSKKTLYLQMNSLRAEDTAVYYCAKDEGLTTGEYWGQGTLVTVSSASTKGPSVFPLAPSSKSTSGGTAALGCLVKDYFPEPVTVSWNSGALTSGVHTFPAVLQSSGLYSLSSVVTVPSSSLGTQTYICNVNHKPSNTKVDKKVEPKSCDKTHTCPPCPAPEAAGGPSVFLFPPKPKDTLYITREPEVTCVVVDVSHEDPEVKFNWYVDGVEVHNAKTKPREEQYNSTYRVVSVLTVLHQDWLNGKEYKCKVSNKALPAPIEKTISKAKGQPREPQVYTLPPSRDELTKNQVSLTCLVKGFYPSDIAVEWESNGQPENNYKTTPPVLDSDGSFFLYSKLTVDKSRWQQGNVFSCSVMHEALHNHYTQKSLSLSPG
light: DIQMTQSPSSLSASVGDRVTITCRASQGIRNDLGWYQQKPGKAPKRLIYATSSFQSGVPSRFSGSGSGTEFTLTISSLQPEDFATYYCLQHNSYPFTFGPGTKVDVKRTVAAPSVFIFPPSDEQLKSGTASVVCLLNNFYPREAKVQWKVDNALQSGNSQESVTEQDSKDSTYSLSSTLTLSKADYEKHKVYACEVTHQGLSSPVTKSFNRGEC
As to B1, the binding result with human CD16a 176F is “no binding (tested: 6 µM)”; with human CD16a 176V, “no binding (tested: 6 µM)”; in the assay with human CD32a 167R, “no binding (tested: 8 µM)”; with human CD16b, “no binding (tested: 10 µM)”; in the assay with human CD32b, “no binding (tested: 18 µM)”; in the assay with human CD64, “no binding (tested: 12.5 nM)”. Besides, in the assay with human CD32a 167H, the binding result is reported as “no binding (tested: 8 µM)”. Further, the Kd with cynomolgus FcRn is 121 nM; in [1], 0.141 nM; in assay [2], 0.0494 nM; with human FcRn it was 145 nM. The koff with cynomolgus FcRn amounted to 0.0453 s⁻¹; in assay [1], 0.000125 s⁻¹; in assay [2], 8.09e-05 s⁻¹; in the assay with human FcRn, 0.0442 s⁻¹. Also, the kon with cynomolgus FcRn came to 374000 M⁻¹ s⁻¹; in assay [1], 886000 M⁻¹ s⁻¹; in [2], 1.64e+06 M⁻¹ s⁻¹; in the assay with human FcRn it was 306000 M⁻¹ s⁻¹. For the same molecule, the “Donor 1 IC50, IL-2 release by pre-activated human CD4+ T cells with 20 ng/ml human OX40L” value in [3] worked out at 1.37 nM. Besides, the “Donor 2 IC50, IL-2 release by pre-activated human CD4+ T cells with 20 ng/ml human OX40L” value in assay [3] worked out at 1.33 nM. Also, in [3], the “Donor 3 IC50, IL-2 release by pre-activated human CD4+ T cells with 20 ng/ml human OX40L” value was 1 nM. This molecule returned an IC50 in the assay with biotinylated hOX40L of 1.41 nM. This molecule registered an EC50 in assay [4] of 3.43 nM. Moreover, the “IC50, luminescence (RLU), hOX40 reporter cells with 50 ng/mL hOX40L” value in [5] came out at 0.852 nM. Also, the “RU at 25 nM C1q” value with C1q is -3.6 RU.

B2: anti-hOX40L antibody clone 231 (antibody, human IgG1, kappa, L234A L235A)
heavy: QVQLVQSGTEVKKPGASVKVSCKASGYTFTNYDINWVRQATGQGLEWVGWIHPNTGKTGYAQKFQGRVTMTRDISIGTAYMELNSLRSEDTAVYYCARESYDLWSGHSFNWFDPWGQGTLVTVSSASTKGPSVFPLAPSSKSTSGGTAALGCLVKDYFPEPVTVSWNSGALTSGVHTFPAVLQSSGLYSLSSVVTVPSSSLGTQTYICNVNHKPSNTKVDKKVEPKSCDKTHTCPPCPAPEAAGGPSVFLFPPKPKDTLYITREPEVTCVVVDVSHEDPEVKFNWYVDGVEVHNAKTKPREEQYNSTYRVVSVLTVLHQDWLNGKEYKCKVSNKALPAPIEKTISKAKGQPREPQVYTLPPSRDELTKNQVSLTCLVKGFYPSDIAVEWESNGQPENNYKTTPPVLDSDGSFFLYSKLTVDKSRWQQGNVFSCSVMHEALHNHYTQKSLSLSPG
light: DIQLTQSPSFLSASVGDRVIITCRASQGITSYLAWYQRKPGKAPKLLIYGATTLQSGVPSRFSGSGSGTEFTLTISSLQPEDFATYYCQQLQSYPYTFGQGTKLEIKRTVAAPSVFIFPPSDEQLKSGTASVVCLLNNFYPREAKVQWKVDNALQSGNSQESVTEQDSKDSTYSLSSTLTLSKADYEKHKVYACEVTHQGLSSPVTKSFNRGEC
As to B2, the binding result in the assay with human CD16a 176F is recorded as “no binding (tested: 6 µM)”; in the assay with human CD16a 176V, “no binding (tested: 6 µM)”; with human CD32a 167R it was “no binding (tested: 8 µM)”; in the assay with human CD16b it was “no binding (tested: 10 µM)”; with human CD32b it was “no binding (tested: 18 µM)”; with human CD64, “no binding (tested: 12.5 nM)”. In the assay with human CD32a 167H, the binding result is given as “no binding (tested: 8 µM)”. Further, the Kd in the assay with cynomolgus FcRn is 117 nM; in [1], 0.137 nM; in assay [2] it was 0.0714 nM; in the assay with human FcRn, 141 nM. Moreover, the koff with cynomolgus FcRn was found to be 0.0465 s⁻¹; in assay [1] it was 0.00013 s⁻¹; in assay [2], 0.000105 s⁻¹; with human FcRn it was 0.0462 s⁻¹. For the same molecule, the kon with cynomolgus FcRn was determined as 398000 M⁻¹ s⁻¹; in assay [1], 943000 M⁻¹ s⁻¹; in assay [2], 1.47e+06 M⁻¹ s⁻¹; in the assay with human FcRn, 328000 M⁻¹ s⁻¹. In the assay with biotinylated hOX40L, half-maximal inhibition (IC50) was put at 28.5 nM. The “IC50, luminescence (RLU), hOX40 reporter cells with 50 ng/mL hOX40L” value in assay [5] amounted to 0.909 nM. In the assay with C1q, the “RU at 25 nM C1q” value was determined as 1.8 RU.
